Experiment [1] concerns the target undigested bovine aggrecan (bovine) (UniProt P13608). Briefly: cell-based or functional assay.
For experiment [2] the target is unchanged. Briefly: cell-based or functional assay. This is another data set of the same source.

Where two headings read alike, the source gives them in different places.

Sequence of undigested bovine aggrecan (bovine) (P13608 20-2364): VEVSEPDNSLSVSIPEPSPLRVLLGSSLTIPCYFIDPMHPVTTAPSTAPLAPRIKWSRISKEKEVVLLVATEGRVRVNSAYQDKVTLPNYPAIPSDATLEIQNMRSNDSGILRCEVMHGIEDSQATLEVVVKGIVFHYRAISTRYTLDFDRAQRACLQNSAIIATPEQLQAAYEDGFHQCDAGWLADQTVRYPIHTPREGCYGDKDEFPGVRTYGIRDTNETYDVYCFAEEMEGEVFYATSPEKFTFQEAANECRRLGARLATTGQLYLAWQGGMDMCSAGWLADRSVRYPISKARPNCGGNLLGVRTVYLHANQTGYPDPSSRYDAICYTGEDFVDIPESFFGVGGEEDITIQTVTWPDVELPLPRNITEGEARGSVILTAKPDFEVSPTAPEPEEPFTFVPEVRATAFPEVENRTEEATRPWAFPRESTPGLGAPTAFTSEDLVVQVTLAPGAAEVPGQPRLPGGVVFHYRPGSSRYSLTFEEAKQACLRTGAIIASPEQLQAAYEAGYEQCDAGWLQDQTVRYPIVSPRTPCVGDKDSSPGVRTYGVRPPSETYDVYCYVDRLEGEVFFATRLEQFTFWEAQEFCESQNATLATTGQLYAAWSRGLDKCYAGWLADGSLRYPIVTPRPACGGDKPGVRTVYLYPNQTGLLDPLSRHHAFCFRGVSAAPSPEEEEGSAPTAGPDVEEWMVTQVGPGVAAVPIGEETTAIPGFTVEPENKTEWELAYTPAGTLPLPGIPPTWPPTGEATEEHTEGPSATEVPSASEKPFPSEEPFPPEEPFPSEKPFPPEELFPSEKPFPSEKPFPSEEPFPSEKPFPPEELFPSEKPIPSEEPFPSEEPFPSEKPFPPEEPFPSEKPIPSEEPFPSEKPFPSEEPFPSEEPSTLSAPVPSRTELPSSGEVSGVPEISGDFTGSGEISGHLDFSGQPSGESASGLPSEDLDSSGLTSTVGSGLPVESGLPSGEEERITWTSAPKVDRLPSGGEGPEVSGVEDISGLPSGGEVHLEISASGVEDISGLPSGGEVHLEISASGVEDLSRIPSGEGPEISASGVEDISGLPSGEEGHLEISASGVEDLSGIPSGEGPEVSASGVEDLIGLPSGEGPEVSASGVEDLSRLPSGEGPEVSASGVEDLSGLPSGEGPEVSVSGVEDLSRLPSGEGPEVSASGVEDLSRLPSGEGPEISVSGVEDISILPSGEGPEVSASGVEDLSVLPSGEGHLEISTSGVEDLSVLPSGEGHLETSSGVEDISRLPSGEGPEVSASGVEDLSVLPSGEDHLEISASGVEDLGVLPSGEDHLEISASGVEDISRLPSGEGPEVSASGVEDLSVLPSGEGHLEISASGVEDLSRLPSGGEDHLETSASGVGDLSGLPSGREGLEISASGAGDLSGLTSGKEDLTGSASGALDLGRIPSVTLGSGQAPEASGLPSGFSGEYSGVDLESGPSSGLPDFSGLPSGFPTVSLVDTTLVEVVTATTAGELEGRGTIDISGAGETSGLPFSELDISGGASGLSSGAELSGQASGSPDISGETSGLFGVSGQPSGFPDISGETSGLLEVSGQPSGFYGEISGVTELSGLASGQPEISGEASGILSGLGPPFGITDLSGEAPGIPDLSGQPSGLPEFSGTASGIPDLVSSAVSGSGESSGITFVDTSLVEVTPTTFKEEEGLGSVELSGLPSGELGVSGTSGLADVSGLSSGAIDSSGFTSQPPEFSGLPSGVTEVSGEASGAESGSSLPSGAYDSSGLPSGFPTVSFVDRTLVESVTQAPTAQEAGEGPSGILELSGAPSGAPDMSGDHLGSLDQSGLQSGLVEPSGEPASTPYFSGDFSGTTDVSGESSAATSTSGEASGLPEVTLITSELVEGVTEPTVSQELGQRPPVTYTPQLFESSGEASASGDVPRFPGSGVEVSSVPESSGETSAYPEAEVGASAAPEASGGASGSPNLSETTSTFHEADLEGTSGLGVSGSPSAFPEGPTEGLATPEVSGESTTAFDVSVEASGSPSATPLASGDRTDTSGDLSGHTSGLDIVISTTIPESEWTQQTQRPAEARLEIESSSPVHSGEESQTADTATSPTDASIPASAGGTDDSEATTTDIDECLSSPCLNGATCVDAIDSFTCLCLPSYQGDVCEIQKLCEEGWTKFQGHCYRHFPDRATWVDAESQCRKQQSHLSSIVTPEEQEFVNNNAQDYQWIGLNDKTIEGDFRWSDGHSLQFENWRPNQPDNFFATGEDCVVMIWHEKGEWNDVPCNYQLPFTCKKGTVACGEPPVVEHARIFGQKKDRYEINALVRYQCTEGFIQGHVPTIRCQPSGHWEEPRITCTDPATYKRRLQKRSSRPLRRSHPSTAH

In the case of “recombinant ADAMTS-4 (from UniProt O75173 213-694) (enzyme)”, the amount of enzyme needed for 45% inhibition in the competitive inhibition ELISA for aggrecanase activity is 1 ng in experiment [1] and 0.0135 pM in experiment [2].

Values taken from US20050260733A1, “Proteases and uses thereof” (WYETH, priority 2004, published 2005).
